Results from PMC5650360, “Maslinic acid promotes autophagy by disrupting the interaction between Bcl2 and Beclin1 in rat pheochromocytoma PC12 cells” (Oncotarget, 2017).

Biological target: T1, rat Beclin1 BH3 domain and Coiled Coil domain (residues 100-266) (rat, UniProt Q91XJ1 100-266)
T1 construct: Beclin1, rat, BH3 domain and coiled coil domain, residues 100-266; Cloned in a modified pET32 vector with a human rhinovirus 3C protease site and without thioredoxin; source: E. coli BL21 (DE3), purified (HisTrap HP, 3C cleavage, Superdex 75)
T1 sequence (Q91XJ1 100-266): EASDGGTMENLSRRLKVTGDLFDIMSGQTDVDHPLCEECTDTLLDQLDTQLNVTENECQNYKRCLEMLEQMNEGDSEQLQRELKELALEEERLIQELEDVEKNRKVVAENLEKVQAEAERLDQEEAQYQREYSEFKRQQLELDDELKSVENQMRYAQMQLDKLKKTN
Assay: ITC; 200 μM Beclin1 injected (2 μl aliquots) into 200 μl of 20 μM Bcl2, 50 mM Tris pH 8.0, 150 mM NaCl, Auto-iTC200, without MA
Settings: both partners purified

B1: BH3 motif containing region of rat Bcl2 (residues 1-156), un-tagged version (domain or fragment, UniProt P49950 1-156, looked up)
chain: MAQAGRTGYDNREIVMKYIHYKLSQRGYEWDTGDEDSAPLRAAPTPGIFSFQPESNRTPAVHRDTAARTSPLRPLVANAGPALSPVPPVVHLTLRRAGDDFSRRYRRDFAEMSSQLHLTPFTARGRFATVVEELFRDGVNWGRIVAFFEFGGVMCV
notes: Bcl2, rat, BH3 motif containing region, residues 1-156; Cloned as a GST fusion in a modified pET32 vector with a 3C protease site
  Kd: ~7.3 µM
